Measurements reported in patent US20150175707A1.

Tests used:
[1] = target: C1q from pooled human serum (human) (UniProt P02745); experiment: C1q binding ELISA; antibody dilution series coated, 3% pooled human serum as C1q source, anti-C1q detection
[2] = target: FcγRIIIa receptor, V158 (high affinity) variant, on Jurkat effector cells (UniProt P08637); experiment: cell-based or functional assay
[3] = target: Protein A (ready-to-use protein A sensortips, Fortebio) (Staphylococcus aureus) (UniProt P38507); experiment: Octet QK, protein A sensor tips, against an IgG standard curve; A280 concentration of the sample 3818 µg/ml
[4] = target: Protein A (ready-to-use protein A sensortips, Fortebio) (Staphylococcus aureus) (UniProt P38507); experiment: ratio of the concentrations by A280 and by Octet protein A sensor tips
[5] = target: IgG1-005-E345R/E430G/Y436I/S440K (human); experiment: HP-SEC of an equimolar mixture, PBS pH 7.4; Fc:Fc hetero-oligomerization
[6] = target: IgG1-005-E345R/E430G/S440K (human); experiment: as above
[7] = target: IgG1-005-E345R/E430G/S440Y (human); experiment: dynamic light scattering, 2.86 mg/mL in PBS pH 7.4; Fc:Fc self-oligomerization
[8] = target: Protein A (ready-to-use protein A sensortips, Fortebio) (Staphylococcus aureus) (UniProt P38507); experiment: Octet QK, protein A sensor tips, against an IgG standard curve; A280 concentration of the sample 2905 µg/ml
[9] = target: IgG1-005-E345R/E430G/S440Y (human); experiment: HP-SEC with multiple angle light scattering; Fc:Fc self-oligomerization

## HuMab 005 (wild type IgG1-005), fully human IgG1,κ antibody against human CD38
[1]
  EC50: 1.55 µg/mL
[2]
  EC50 (ADCC reporter assay): 0.0095 µg/mL
  Maximal signal (ADCC reporter assay): 335000 RLU
[3]
  Octet-Protein A (apparent IgG concentration): 3620 µg/mL
[4]
  A280/Protein A × 100 (%): 0.95%

## IgG1-005-E345R/E430G/K439E/S440Y (antibody)
[5]
  % multimers (HP-SEC): 93%
[6]
  % multimers (HP-SEC): 65%

## IgG1-005-E345R/E430G/S440Y (antibody)
[7]
  apparent MW (DLS): 876 kDa
  monomeric subunits per complex (DLS) (monomeric subunits): 6.17
[8]
  Octet-Protein A (apparent IgG concentration): 2050 µg/mL
[1]
  EC50: 0.52 µg/mL
[2]
  EC50 (ADCC reporter assay): 0.036 µg/mL
  Maximal signal (ADCC reporter assay): 394000 RLU
[9]
  apparent average MW of the multimeric peak (MALS): 772 kDa
  monomeric subunits per complex (MALS) (monomeric subunits): 5.4
[4]
  A280/Protein A × 100 (%): 0.71%

## HuMab 005 mutant E345R (antibody)
[1]
  EC50: 0.836 µg/mL
